# Numbered stars: 1 amine (or outer) side, 2 acyl side, 3 side chain; on linkers, the order of the positions; unused ones are H or OH. Square brackets hold non-standard residues; d marks the D form. Side chains are listed from the residue outwards. Ends that are not written are not given here. * marks the point of attachment. C20 diacid = O=C(O)CCCCCCCCCCCCCCCCCCC(=O)*; γGlu = O=C(O)[C@H](CCC(=O)[*:2])N[*:1]; AEEA = NCCOCCOCC(=O)O; Aib = CC(C)(N)C(=O)O
# Biological target: T1, human gastric inhibitory peptide receptor (hGIPR) (Homo sapiens, UniProt P48546)
# T1 construct: expressed in transfected cells; host or cells: HEK293
# T1 sequence (P48546 22-466): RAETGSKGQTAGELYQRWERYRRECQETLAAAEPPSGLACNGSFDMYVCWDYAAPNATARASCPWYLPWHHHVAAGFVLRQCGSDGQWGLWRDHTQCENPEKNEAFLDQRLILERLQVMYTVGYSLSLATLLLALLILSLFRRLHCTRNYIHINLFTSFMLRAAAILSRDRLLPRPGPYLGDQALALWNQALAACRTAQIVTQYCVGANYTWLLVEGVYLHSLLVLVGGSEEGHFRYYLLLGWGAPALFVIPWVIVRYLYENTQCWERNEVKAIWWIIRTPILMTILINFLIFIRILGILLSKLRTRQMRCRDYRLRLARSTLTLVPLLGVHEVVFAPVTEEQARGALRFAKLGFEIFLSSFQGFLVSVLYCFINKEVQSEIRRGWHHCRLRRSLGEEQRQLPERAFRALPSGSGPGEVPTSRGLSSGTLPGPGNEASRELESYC
# Experiment: cAMP pharmacological functional assay in presence of 0.1% casein, hGIPR
# Assay type: cell-based
# Conditions: ratio of hGIPR to hGLP1R cAMP EC50 ratios
row,Substance,[hGIPR/hGLP1R] EC50 Ratio
1,Y-Aib-EGTFTSDYSILLDKIAQ-Aib-K((2-[2-(2-Amino-ethoxy)-ethoxy]-acetyl)2-(γGlu)-CO—(CH2)18—CO2H)FIEYLIEGGPSSGAPPPS-NH2 (Y[Aib]EGTFTSDYSILLDKIAQ[Aib]K([AEEA-AEEA-γGlu-C20 diacid])FIEYLIEGGPSSGAPPPS-NH2; N-terminus assumed; SMILES CC[C@H](C)[C@H](NC(=O)[C@H](CCCCN)NC(=O)[C@H](CC(=O)O)NC(=O)[C@H](CC(C)C)NC(=O)[C@H](CC(C)C)NC(=O)[C@@H](NC(=O)[C@H](CO)NC(=O)[C@H](Cc1ccc(O)cc1)NC(=O)[C@H](CC(=O)O)NC(=O)[C@H](CO)NC(=O)[C@@H](NC(=O)[C@H](Cc1ccccc1)NC(=O)[C@@H](NC(=O)CNC(=O)[C@H](CCC(=O)O)NC(=O)C(C)(C)NC(=O)[C@@H](N)Cc1ccc(O)cc1)[C@@H](C)O)[C@@H](C)O)[C@@H](C)CC)C(=O)N[C@@H](C)C(=O)N[C@@H](CCC(N)=O)C(=O)NC(C)(C)C(=O)N[C@@H](CCCCNC(=O)COCCOCCNC(=O)COCCOCCNC(=O)CC[C@H](NC(=O)CCCCCCCCCCCCCCCCCCC(=O)O)C(=O)O)C(=O)N[C@@H](Cc1ccccc1)C(=O)N[C@H](C(=O)N[C@@H](CCC(=O)O)C(=O)N[C@@H](Cc1ccc(O)cc1)C(=O)N[C@@H](CC(C)C)C(=O)N[C@H](C(=O)N[C@@H](CCC(=O)O)C(=O)NCC(=O)NCC(=O)N1CCC[C@H]1C(=O)N[C@@H](CO)C(=O)N[C@@H](CO)C(=O)NCC(=O)N[C@@H](C)C(=O)N1CCC[C@H]1C(=O)N1CCC[C@H]1C(=O)N1CCC[C@H]1C(=O)N[C@@H](CO)C(N)=O)[C@@H](C)CC)[C@@H](C)CC) [Peptide 32],6.18
2,"Y-Aib-EGTFTSDYSILLDKK((2-[2-(2-Amino-ethoxy)-ethoxy]-acetyl)2-(γGlu)-CO—(CH2)18—CO2H)AQ-Aib-AFI-(D-Glu)-YLIEGGPSSGAPPPS-NH2 (YXEGTFTSDYSILLDKKAQXAFIXYLIEGGPSSGAPPPS; Aib, D-Glu, lipidated Lys, C-terminal amide; (2)..(2) Xaa at position 2 is Aib; MOD_RES (17)..(17) Lys at position 17 is chemically modified by conjugation of the epsilon-amino group of the Lys side chain with (2-[2-(2-amino-ethoxy)-ethoxy]-acetyl)2-(gamma-Glu)-CO-(CH2)18- CO2H; (20)..(20) Xaa at position 20 is Aib; (24)..(24) Xaa at position 24 is D-Glu; MOD_RES (39)..(39) Ser at position 39 is amidated) [Peptide 84]",9.19
3,"Y-Aib-EGTFTSDYSILLDKK((2-[2-(2-Amino-ethoxy)-ethoxy]-acetyl)2-(γGlu)-CO—(CH2)18—CO2H)AQ-Aib-AFIEYLI-(D-Glu)-GGPSSGAPPPS-NH2 (YXEGTFTSDYSILLDKKAQXAFIEYLIXGGPSSGAPPPS; Aib, D-Glu; K lipidated C20 diacid-γGlu-AEEA2; C-terminal amide; (2)..(2) Xaa at position 2 is Aib; MOD_RES (17)..(17) Lys at position 17 is chemically modified by conjugation of the epsilon-amino group of the Lys side chain with (2-[2-(2-amino-ethoxy)-ethoxy]-acetyl)2-(gamma-Glu)-CO-(CH2)18- CO2H; (20)..(20) Xaa at position 20 is Aib; (28)..(28) Xaa at position 28 is D-Glu; MOD_RES (39)..(39) Ser at position 39 is amidated) [Peptide 83]",4.84
4,Y-Aib-EGTFTSDYSILLDKK((2-[2-(2-Amino-ethoxy)-ethoxy]-acetyl)2-(γGlu)-CO—(CH2)18—CO2H)AQ-Aib-AFIEYLIEGG-NH2 (Y[Aib]EGTFTSDYSILLDKK([AEEA-AEEA-γGlu-C20 diacid])AQ[Aib]AFIEYLIEGG-NH2; N-terminus assumed; SMILES CC[C@H](C)[C@H](NC(=O)[C@H](CC(C)C)NC(=O)[C@H](Cc1ccc(O)cc1)NC(=O)[C@H](CCC(=O)O)NC(=O)[C@@H](NC(=O)[C@H](Cc1ccccc1)NC(=O)[C@H](C)NC(=O)C(C)(C)NC(=O)[C@H](CCC(N)=O)NC(=O)[C@H](C)NC(=O)[C@H](CCCCNC(=O)COCCOCCNC(=O)COCCOCCNC(=O)CC[C@H](NC(=O)CCCCCCCCCCCCCCCCCCC(=O)O)C(=O)O)NC(=O)[C@H](CCCCN)NC(=O)[C@H](CC(=O)O)NC(=O)[C@H](CC(C)C)NC(=O)[C@H](CC(C)C)NC(=O)[C@@H](NC(=O)[C@H](CO)NC(=O)[C@H](Cc1ccc(O)cc1)NC(=O)[C@H](CC(=O)O)NC(=O)[C@H](CO)NC(=O)[C@@H](NC(=O)[C@H](Cc1ccccc1)NC(=O)[C@@H](NC(=O)CNC(=O)[C@H](CCC(=O)O)NC(=O)C(C)(C)NC(=O)[C@@H](N)Cc1ccc(O)cc1)[C@@H](C)O)[C@@H](C)O)[C@@H](C)CC)[C@@H](C)CC)C(=O)N[C@@H](CCC(=O)O)C(=O)NCC(=O)NCC(N)=O) [Peptide 51],3.97
5,Y-Aib-EGTFTSDYSILLDKK((2-[2-(2-Amino-ethoxy)-ethoxy]-acetyl)2-(γGlu)-CO—(CH2)18—CO2H)AQ-Aib-AFIEYLIEGGPSSG-NH2 (Y[Aib]EGTFTSDYSILLDKK([AEEA-AEEA-γGlu-C20 diacid])AQ[Aib]AFIEYLIEGGPSSG-NH2; N-terminus assumed; SMILES CC[C@H](C)[C@H](NC(=O)[C@H](CC(C)C)NC(=O)[C@H](Cc1ccc(O)cc1)NC(=O)[C@H](CCC(=O)O)NC(=O)[C@@H](NC(=O)[C@H](Cc1ccccc1)NC(=O)[C@H](C)NC(=O)C(C)(C)NC(=O)[C@H](CCC(N)=O)NC(=O)[C@H](C)NC(=O)[C@H](CCCCNC(=O)COCCOCCNC(=O)COCCOCCNC(=O)CC[C@H](NC(=O)CCCCCCCCCCCCCCCCCCC(=O)O)C(=O)O)NC(=O)[C@H](CCCCN)NC(=O)[C@H](CC(=O)O)NC(=O)[C@H](CC(C)C)NC(=O)[C@H](CC(C)C)NC(=O)[C@@H](NC(=O)[C@H](CO)NC(=O)[C@H](Cc1ccc(O)cc1)NC(=O)[C@H](CC(=O)O)NC(=O)[C@H](CO)NC(=O)[C@@H](NC(=O)[C@H](Cc1ccccc1)NC(=O)[C@@H](NC(=O)CNC(=O)[C@H](CCC(=O)O)NC(=O)C(C)(C)NC(=O)[C@@H](N)Cc1ccc(O)cc1)[C@@H](C)O)[C@@H](C)O)[C@@H](C)CC)[C@@H](C)CC)C(=O)N[C@@H](CCC(=O)O)C(=O)NCC(=O)NCC(=O)N1CCC[C@H]1C(=O)N[C@@H](CO)C(=O)N[C@@H](CO)C(=O)NCC(N)=O) [Peptide 50],2.90
6,Y-Aib-EGTFTSDYSILLDSK((2-[2-(2-Amino-ethoxy)-ethoxy]-acetyl)2-(γGlu)-CO—(CH2)18—CO2H)AQ-Aib-AFIEYLIEGGPSSGAPPPS-NH2 (Y[Aib]EGTFTSDYSILLDSK([AEEA-AEEA-γGlu-C20 diacid])AQ[Aib]AFIEYLIEGGPSSGAPPPS-NH2; N-terminus assumed; SMILES CC[C@H](C)[C@H](NC(=O)[C@H](CC(C)C)NC(=O)[C@H](Cc1ccc(O)cc1)NC(=O)[C@H](CCC(=O)O)NC(=O)[C@@H](NC(=O)[C@H](Cc1ccccc1)NC(=O)[C@H](C)NC(=O)C(C)(C)NC(=O)[C@H](CCC(N)=O)NC(=O)[C@H](C)NC(=O)[C@H](CCCCNC(=O)COCCOCCNC(=O)COCCOCCNC(=O)CC[C@H](NC(=O)CCCCCCCCCCCCCCCCCCC(=O)O)C(=O)O)NC(=O)[C@H](CO)NC(=O)[C@H](CC(=O)O)NC(=O)[C@H](CC(C)C)NC(=O)[C@H](CC(C)C)NC(=O)[C@@H](NC(=O)[C@H](CO)NC(=O)[C@H](Cc1ccc(O)cc1)NC(=O)[C@H](CC(=O)O)NC(=O)[C@H](CO)NC(=O)[C@@H](NC(=O)[C@H](Cc1ccccc1)NC(=O)[C@@H](NC(=O)CNC(=O)[C@H](CCC(=O)O)NC(=O)C(C)(C)NC(=O)[C@@H](N)Cc1ccc(O)cc1)[C@@H](C)O)[C@@H](C)O)[C@@H](C)CC)[C@@H](C)CC)C(=O)N[C@@H](CCC(=O)O)C(=O)NCC(=O)NCC(=O)N1CCC[C@H]1C(=O)N[C@@H](CO)C(=O)N[C@@H](CO)C(=O)NCC(=O)N[C@@H](C)C(=O)N1CCC[C@H]1C(=O)N1CCC[C@H]1C(=O)N1CCC[C@H]1C(=O)N[C@@H](CO)C(N)=O) [Peptide 9],2.45
7,Y-Aib-EGTFTSDYSK((2-[2-(2-Amino-ethoxy)-ethoxy]-acetyl)2-(γGlu)-CO—(CH2)18—CO2H)LLDKIAQ-Aib-AFIEYLIEGGPSSGAPPPS-NH2 (Y[Aib]EGTFTSDYSK([AEEA-AEEA-γGlu-C20 diacid])LLDKIAQ[Aib]AFIEYLIEGGPSSGAPPPS-NH2; N-terminus assumed; SMILES CC[C@H](C)[C@H](NC(=O)[C@H](CCCCN)NC(=O)[C@H](CC(=O)O)NC(=O)[C@H](CC(C)C)NC(=O)[C@H](CC(C)C)NC(=O)[C@H](CCCCNC(=O)COCCOCCNC(=O)COCCOCCNC(=O)CC[C@H](NC(=O)CCCCCCCCCCCCCCCCCCC(=O)O)C(=O)O)NC(=O)[C@H](CO)NC(=O)[C@H](Cc1ccc(O)cc1)NC(=O)[C@H](CC(=O)O)NC(=O)[C@H](CO)NC(=O)[C@@H](NC(=O)[C@H](Cc1ccccc1)NC(=O)[C@@H](NC(=O)CNC(=O)[C@H](CCC(=O)O)NC(=O)C(C)(C)NC(=O)[C@@H](N)Cc1ccc(O)cc1)[C@@H](C)O)[C@@H](C)O)C(=O)N[C@@H](C)C(=O)N[C@@H](CCC(N)=O)C(=O)NC(C)(C)C(=O)N[C@@H](C)C(=O)N[C@@H](Cc1ccccc1)C(=O)N[C@H](C(=O)N[C@@H](CCC(=O)O)C(=O)N[C@@H](Cc1ccc(O)cc1)C(=O)N[C@@H](CC(C)C)C(=O)N[C@H](C(=O)N[C@@H](CCC(=O)O)C(=O)NCC(=O)NCC(=O)N1CCC[C@H]1C(=O)N[C@@H](CO)C(=O)N[C@@H](CO)C(=O)NCC(=O)N[C@@H](C)C(=O)N1CCC[C@H]1C(=O)N1CCC[C@H]1C(=O)N1CCC[C@H]1C(=O)N[C@@H](CO)C(N)=O)[C@@H](C)CC)[C@@H](C)CC) [Peptide 25],3.23

# Reference: US12295987B2, “Method of using a GIP/GLP1 co-agonist for diabetes” (Eli Lilly and Company, priority 2018, dated 2025)
